Here are results for 16 sequences from a protein production outcome set (Wang et al. 2014).

A short description of this data set: label from the status in PepcDB records.

As for “MAIARALRDELSFGAVSRRENPVSAHIPYSRHVSDEVIKTQDGMLMSFVHMSGLCFETIDIAEINSRLLGRNDLIRGLANSRYAIYSHIVRREVKPAIESSFENKFCQELDQRYTAALRTQRMFVNDIYLTIVRRELQGTVGTADLVIRKLLGRRAADGRSSSEERALIELTDVMKAVRESLQAYGARVLTVVKRNDVWHSEPLEFLVQLVNGGFPRPMALPRMKLAEALATKRLFFGPNALEIRGAFPGETRYGAIISVGEYPSITGPGMLNPMLKVPHEFIVTQSFAIIDKPQALTQMERVGRKIDMSDEADSIVGDQLGEARDELLSSEALYGLHHLTVLCLGKTMDDVARCVTDVGTALTEVSALWVREDLNCEPAFWATLPGNFAYVARKSMISSKNMAGFSAFHNYPSGRTGGVHWGMPISVLETTSQTAYFFNFHVRDLGNFTLNGPSGSGKTVLLGFLAAQAQRITPRPKLVMIDKDRGLDIFVRSLGGRYEVLKAGEPSGFNPLRLPDTPRNREFLFQLFSFILRRSDGYAHSTREEQVIRNAIAQVASAPPEGRTMEEFAELLRGAMRAGDDDLYSRLQPWMRPDQRGWLFNNAEDSFSMSSIFGFDMTSVLSDATTSTAALLYIFHRIEELLDGQPVMIFLDEGWKLLDNDIFSYFIKDKLKTIRKLNGIIGFGTQSAADIVKSSIANTLIEQTPTNIFFPNPKADEESHRAFGLSEREIKWIRETPPEARKFLIKHDQDSVIARLNLGAMPDAIKILSGRIETVQELDALRARVGDDPDVWLPVFLGRDPE”, the protein production result is listed as “failed”.

In the case of “MAIEGKTTDVANKRIRLGMVGGGSGAFIGGVHRMAARLDNRFDLVAGALSSTPEKSLASGRELGLDSERCYGSFEEMAEKEALREDGIEAVAIVTPNHVHYPAAKAFLERGIHVICDKPLTSNLEDAKKLKDVADKADALFILTHNYTGYPMVRHARELVEAGALGNIRLVQMEYPQDWLTEAVEQTGAKQAVWRTDPAQSGVGGSTGDIGTHAYNLGCFISGLEADELAADVHTFVEGRRLDDNAHVMMRFKPKGGKQPARGMLWCSQVAVGHENGLKIRLYGDKAGLEWTQADPNYLWFTKLGEPKQLITRGGAGAGAAAARVTRIPSGHPEGYLEAFATIYTEAAHAIEARRTGSALDKAVIYPTVDDGVKGVAFVTACIESGKKNGGWVKL”, the protein production entry was “failed”.

As for “MAIFMSYVLLGLSLAAPIGPVNAAQLDRGIKNGFFHAWLVGLGAITADVIYMLLVFFGLVHFLQLPFMQTFLWLFGFFVLVYTGIETISSVNHLKEATNMRTSETYRKSFIYGFLMSISNPLTILFWLGIFGSVLAKTASVYGPAQLVFYSSAILIGLLLWDVAMAGIASGARHMLTPARLKIVSILSGLTLIGFGVYFGLQACRVLFG”, the protein production result is reported as “failed”.

For the sequence “MAILHSVSYGTSDNTLVFIGSLGSTTDMWLPQLDALHKDFRVIAVDHRGHGLSELIEGTPTVADLAQDVLDTLDDLGVGNFGVIGLSLGGAVAQYLAATSDRVTKAAFMCTAAKFGEPQGWLDRAAACRENGTGSLSEAVIQRWFSPTWLENNPASREHFEAMVAGTPSEGYALCCEALATWDFTDRLGEITVPVLTIAGADDPSTPPATVQIIADGVGGESRAEVLSPAAHVPTVERPNEVNELLAQHFA”, the protein production entry is on record as “failed”.

Turning to “MAIMRHGLAASVMGTALAMVVAVLPAGCANGQVGEANRPGTTPPSEIALAPSGLGSYLAARHAEAEGDTEAAAAFYLTALADDPDNLNLLRRAYFFNAVEGKVGEAAELASRLMVSDPTATIAPLVISADLAKRGQMREAATLINGQNRQGLNSFLVPVALAWARAGAGDAGGAMTALDELSKNAGYATLRALHGALLQEQLGNKAKAGELYEAYVKGGERPSLRGVQLAGGFFVRTGQAARARALAADYSQRFPDSLLLDNAVAGFAEGGTPPAPEVGTAKDGMAELYYGTASLLADNDLQTATMFNRLALHLRPDFPLAQLLLGQLLAGQNRHDDAIAAYRGIESHDTLMLAAGLAEAESLRAQGKIDDAVVEFDKLAAHFPSRPDPLIEKGDLLRQDQRFAEAATAYSAAIARMGAPDPRHWAVYFGRGVAYERTDRWPLAEQDFQTALRLNPDQPFVLNYLGYSWLDNGINVDQAKQLIERAVAQRPKDGYIIDSLGWAHFRLGEYAEAVGILERAIHETPDDATINDHLGDAYWMVGRRLEARYQWERALSLADDADLSASIQKKLDTGLSPPSPVVPRSAGRPAERQPTSATP”, the protein production entry was “failed”.

Turning to “MAINIIEYNRSYKEELIEFILSIQKNEFNIKIDRDDQPDLENIEHNYLNSGGQFWLAINNHQNIVGTIGLIRLDNNMSALKKMFVDKGYRNLKIGKKLLDKVIMTCKEQNIDGIYLGTIDKFISAQYFYSNNGFREIKRGDLPSSFPKLDVDNRFYYRNLKD”, the protein production entry is recorded as “not failed”.

Consider “MAIRLTHLRKPLAYSRSFDVCIPFFRSISSFEAVEKAIKCAVETKEYLRIPELVVSLKEPYQNSTLFSFLSAFQRHHRIRVIDEILQSFVPVRPRSLPKIVYSSLLTYCLQSSDPLPLSFAILQRTLRSGCLPNPQTHLLLSDAWLERRRGSQSVADIINEMKLIGYSPDTGTCNYLVSSLCAVDKLDEAIKVVEEMSAAGCIPDVESYGAVINSLCLARKTTDVVKIVKEMVSKAGISPRKGMLTKVAAALRANREIWKAIEMIEFVESRDYPVEFESYEVVVEGCLEVREYILAGKVVMRMTDRGFIPYIKVRQKVVERLINIGEWKLACTVRQRVSELRS”, for which the protein production entry is “failed”.

For the sequence “MAIRRCYIAQNPKSSCRFNCVRERFEDLRGVPCLVYEGETRDWINAALFLEDENESEDRKRFVLHTSHSALLYMEYDLTSNADCTVLELARCTDSSILYYTKLHGSSFNKLAIISGNAFGELLVWQTQFPTESDPKSVMKTYPLLLRIEAHNGVIHSIEFDLQSQLLVTTSDDRSVKFWNIQKSGDWTTAEIKPMFSCYGHSSRVMCVVILKIDDRTFVASGGEDSYVCIWSSSGELILKRRQQFGAPIWRLGFSQDAEILYSTSSTGNLVGQNLKEVLNRPKIESTILSSLGDANEFVRNLKFVNNEIIVGLSSLNRLYYTRISPDSSHENKWLMVNDFPSYKRTVLEVFDDIIATCGHRRITLHRDRYLVSDNLGYCLLLQTHQLHIESHIALFNNREPWITAALLISEQYLLLGNREGHVMLYCRSSASDDFQLKDSIRYLHGKMGSNFFKLLSLNADNAHVMSGGHEAFLKYLSVRFSDSTLRVSQREGIPLAWVEASPSDDLILGFNDNHIVAWSRRNDILLQLACGGGHRCWDFRLSDGDSQLSIAYVKQKRVYFYRNSLYNAVDNRLKDIEPNNWHVRNCNTLRLITPRNQSDPFILSAGDDNIIKVTQVTNDSLSQRAEMHSHISTVRSLQAIPYKSNGGDSSTWLVFSVGGRSQLCISQLSIDASNKCWISEISSHTLHNVAASKTSTIEARLMAIDVVQHSDGDLFSIYVAGGDGNISHYIWELETPNQLDLKHFVDIQRCPLGIQWIASKGMLLVSTTNGEVYGFDRTLETTYFQLQLHVTGINTIDIYVDRHLLHILSGGDDESIKYTVLNLNNNNVEQKIEYLGLHNAQVNALAIHCPTKSVAASELFAYTCSIDRQIYRIDLSTHKYKRVGYTCIADVKGMLLDEHQRMYFYGCGLQTMSISNIL”, the protein production result is listed as “failed”.

On to “MAIRSALMNVMLIAVKKAAKGLVRDFGELENLQVSRKGPSDFVSNADLKAEKILKAELRKARPAYSFLMEESGAEDGADTSRRWIVDPLDGTTNFLHGIPHFAISVALEEKGEIVAGVIYNPILDELYTAEKGNGAFVNDRRLRVSGRRDLAESLFATGIPFQGKGGHARFLGQLAKVMAKTSGVRRIGAASLDLAYVAAGRVDGYWEEGLHPWDCAAGILLVKEAGGYVTTLDGKPDPLRQGSLLAANPLMHPLLGELLAEE”, for which the protein production result was “failed”.

Consider “MAISIRTMAALSMVGLRGKRDVQQYSEWISQPCRPAMKGFRPGIGPTLVVLLLLPVLVALGFWQLGRGEQKRQLLASYAERRAAEPVALFELLASEDPAFRRVRLHGHFDADHSLLLDNRLHDGKVGVELLQPFLDQASGRWLLVNRGWLPWPDRRTPPVFSTPQQSLSLDAWVYVSPGAAFQLHADPSGASWPRLITAVGPQALWAELGRSGFDHEVRLESGPGAYLTEWPVVAMGPEKHQAYAVQWFAMALALFALYLYFGWHNTREKRHGNGHESTQHL”, for which the protein production entry is given as “failed”.

For “MAIVGTILFAFYSVAIAAAWFFFGQNQTILAIAIVGSVVLVGVQYKVGKWMALRSVGAEDMDEQEFPRIHRRVESLSRDMGIKKPTLKVANMGVPNAFAVGRKGNGTVVVSRELIDILEHEELDGVLAHELSHIANRDVVTMQLGQGIASIVGIVAQYIVLFSGDNDLADFFLAIVVGNLVQFLVTLFVLAISRYREYVADADARRAIGTGEPLARALEKISQGNEQAAQQQRQRTSRGRGRRQRGQRNDDGLDQQVSALCISSPDTSVLQKLVSTHPPTEKRIQRLRS”, the protein production result is on record as “failed”.

In the case of “MAKAVASQEVANMLNDWYILMKKRDISGSIEMKDDIDKAIEKMEEDHDVLLYYQMLDFRLRLLLEDISQSSTEKLEAISFKDKDPKSTDDKLNYYFYLFKGIYEDYKQNHTEALNFFRIAEKRLSVIQNEIEKAEFHYKIGVLYYNLKATWLSIHHINIASGIFQGYDGYAKRVINCKMLIGLNYIDQFKFAESEVLLKEAIEKTEKIGDQYLLPYTYYNMGFLKSKEDKHEEALKYYNKAFAIKDFETKAKYAYLLCVYENTRSLFKTNDPDQAFKWIDTGFKKAQEVNSEIFELKFKTLYTLHSDCQNKLEVIKDFIHQLEDKKAWVDLEELLMDVANYYRENKLYEEAIYFYIKTDKASKLAGRGGE”, the protein production entry was “failed”.

Take “MAKEGEHSGAKEVKLTKPKISLSDLTFVIYVTTREKLSSSTISCEEIPLKKCGAELECGSNDRFHIQVENLSHMGISKSRMAGVKIECEVIYKEDSEDEAVVRIVNAERPLGTNFGWLNNDLLAPLAHRGLTAEIQLSFNSELLDKIDLQIFHRGEGRYFSQDDTLGYLQCFFPSKI”: the protein production entry is “failed”.

Regarding “MAKGDVITLNFETFVDSDTQVKVTRLTPTDVICHRNYFYQKCFTQDGKKLLFAGDFDGNRNYYLLNLETQQAVQLTEGKGDNTFGGFISTDERAFFYVKNELNLMKVDLETLEEQVIYTVDEEWKGYGTWVANSDCTKLVGIEILKRDWQPLTSWEKFAEFYHTNPTCRLIKVDIETGELEVIHQDTAWLGHPIYRPFDDSTVGFCHEGPHDLVDARMWLVNEDGSNVRKIKEHAEGESCTHEFWIPDGSAMAYVSYFKGQTDRVIYKANPETLENEEVMVMPPCSHLMSNFDGSLMVGDGCDAPVDVADADSYNIENDPFLYVLNTKAKSAQKLCKHSTSWDVLDGDRQITHPHPSFTPNDDGVLFTSDFEGVPAIYIADVPESYKHLEHHHHHH”, the protein production result is listed as “not failed”.

Regarding “MAKHEQILVLDPPSDLKFKGPFTDVVTTNLKLQNPSDRKVCFKVKTTAPRRYCVRPNSGIIDPGSIVTVSVMLQPFDYDPNEKSKHKFMVQTIFAPPNISDMEAVWKEAKPDELMDSKLRCVFEMPNENDKLND”, the protein production entry was “not failed”.

Turning to “MAKHRLDALLVERGLCPSRQQAQRLIRAGEVRVAQAIVDKPGSLVAEDAVIEVAAKPPYVSRGGEKLAKALATFPIALSDRICLDAGISTGGFTDCLLQAGASKVYGIDVGYGQVDWKIRTDPRVLLRERTNIRNLQPTDLYGSDDVWPDLAVADLSFISLTKVLLTLGQLLRSPRELILLVKPQFEVGREKVGKGGVVRDRKDHVTAIAQVLESAQGLGWHGQGLTWSPLLGPAGNVEYLLWLSEAETTWAGDRAAIEALTTEAIATLRAGLEHHHHHH”, the protein production result is on record as “not failed”.
